Where “and” joins values, the source holds several entries; their conditions need not be identical. Equal values may be shown once. Where a name gives a salt, the structure may show the parent alone.
B1: SKGPG-(AGVPG)160-(YG)6-(CGG)8-WP (protein)
chain: SKGPGAGVPGAGVPGAGVPGAGVPGAGVPGAGVPGAGVPGAGVPGAGVPGAGVPGAGVPGAGVPGAGVPGAGVPGAGVPGAGVPGAGVPGAGVPGAGVPGAGVPGAGVPGAGVPGAGVPGAGVPGAGVPGAGVPGAGVPGAGVPGAGVPGAGVPGAGVPGAGVPGAGVPGAGVPGAGVPGAGVPGAGVPGAGVPGAGVPGAGVPGAGVPGAGVPGAGVPGAGVPGAGVPGAGVPGAGVPGAGVPGAGVPGAGVPGAGVPGAGVPGAGVPGAGVPGAGVPGAGVPGAGVPGAGVPGAGVPGAGVPGAGVPGAGVPGAGVPGAGVPGAGVPGAGVPGAGVPGAGVPGAGVPGAGVPGAGVPGAGVPGAGVPGAGVPGAGVPGAGVPGAGVPGAGVPGAGVPGAGVPGAGVPGAGVPGAGVPGAGVPGAGVPGAGVPGAGVPGAGVPGAGVPGAGVPGAGVPGAGVPGAGVPGAGVPGAGVPGAGVPGAGVPGAGVPGAGVPGAGVPGAGVPGAGVPGAGVPGAGVPGAGVPGAGVPGAGVPGAGVPGAGVPGAGVPGAGVPGAGVPGAGVPGAGVPGAGVPGAGVPGAGVPGAGVPGAGVPGAGVPGAGVPGAGVPGAGVPGAGVPGAGVPGAGVPGAGVPGAGVPGAGVPGAGVPGAGVPGAGVPGAGVPGAGVPGAGVPGAGVPGAGVPGAGVPGAGVPGAGVPGAGVPGAGVPGAGVPGAGVPGAGVPGAGVPGAGVPGAGVPGAGVPGAGVPGAGVPGAGVPGAGVPGAGVPGAGVPGAGVPGAGVPGAGVPGAGVPGAGVPGYGYGYGYGYGYGCGGCGGCGGCGGCGGCGGCGGCGGWP

Assays:
[1] = Temperature-programmed turbidimetry (transition temperature Tt); assay type: physicochemical; conditions: for Tt, Concentration 25 μM / Tt, Concentration 50 μM / Tt, Concentration 100 μM: ATBP or ATBP-SMM conjugate in PBS; for Tt, Concentration 25 μM: ATBP concentration 25 μM; for Tt, Concentration 50 μM: ATBP concentration 50 μM; for Tt, Concentration 100 μM: ATBP concentration 100 μM
Experimental: Temperature-Programmed Turbidimetry:
To determine the Tt ATBP-SMM conjugate or parent ATBP were resuspended in PBS at ATBP concentrations of […] and the optical density of each sample was measured at 350 nm by ramping the temperature at a rate of 1° C./min on a temperature-controlled UV-vis spectrophotometer (Cary 300 Bio; Varian Instruments, Palo Alto, Calif.). The Tt was determined from the inflection point of the turbidity profile. […]

[2] = Static light scattering (Rg, Nagg, shape factor); assay type: physicochemical; conditions: for ρ (Rg/Rh) shape factor: computed from DLS and SLS data; for Nagg (chains per nanoparticle) / Rg: nanoparticles; for Nagg (chains per nanoparticle): SLS; for Rg: SLS partial Zimm plot
Experimental: (§1) Static and Dynamic Light Scattering:
(§2) Static and dynamic light scattering measurements were performed on an ALV/CGS-3 goniometer system (Langen, Germany) to determine the Rh and Rg of the ATBP and ATBP-SMM nanoparticle. For the ALV/CGS-3 goniometer system, ATBP and ATBP-SMM conjugates were resuspended in PBS and filtered through 0.22 μm Millex-GV filters into a 10 mm diameter disposable borosilicate glass tube (Fisher). SLS and DLS were measured simultaneously at 22° C. for angles between 30°-150° at 5° increments, where the measurements at each angle was of 3 runs for 15 seconds. The differential refractive index (dn/dc) was quantified by determining the refractive index at five different dilutions using an Abbemat 500 refractometer (Anton Paar, Graz, Austria). DLS data were analyzed by fitting the autocorrelation function to a biexponential decay using the HDRC software package (Germany). The Rh was plotted against angle and extrapolated to zero scattering angle in order to eliminate the effect of the form factor and observe the true hydrodynamic radius. Partial Zimm plots were used to analyze the SLS measurements and ALV/Dynamic and Static FIT and PLOT software was used to determine the Rg and MW of the nanoparticles. The Nagg was calculated by dividing the MW of the nanoparticles by the MW of the ATBP or ATBP-SMM conjugate.
(§3) The detailed procedure was identical to that used to characterize ATBP-SMM conjugates.

[3] = SMM conjugation ratio by Ellman's reagent assay; assay type: physicochemical
Experimental: Determination of SMM Conjugation Ratio:
Following purification, 2-3 mg of lyophilized ATBP was dissolved in 1 mL ddH20. In order to break any pre-existing disulfide bonds between unconjugated cysteine residues, 100 μL of the conjugate was incubated with 100 μL of Immobilized TCEP Reducing Gel (Thermo Fisher Scientific; Rockford, Ill.) for 1 hr at 25° C. Included spin columns were utilized to separate the TCEP beads from the ATBP conjugates. The solution was then split for use in two parallel assays. To determine the ATBP concentration, a 96-well bicinchoninic acid assay (Thermo Fisher Scientific) was used on a Victor3™ microplate reader (Perkin Elmer; Waltham, Mass.). 10 μL of ATBP solution was mixed with 200 μL of BCA working reagent, incubated for 30 min at 37° C., and was compared to an ATBP standard curve (100, 50, 25, 10, 5, 0 μM) fit to a 2nd order polynomial in order to estimate the ATBP concentration for the absorbance at 560 nm. Each conjugate was measured in triplicate. To determine the concentration of free thiols, a 96-well Ellman's assay was developed for use on the Victor3™ microplate reader at an absorbance of 405 nm. 40 μL of an ATBP solution was mixed with 200 μL of a working reagent (25 μM Ellman's reagent in 100 mM phosphate buffer, 1 mM EDTA, pH 8.0), incubated for 2 h at 25° C., and was compared to a standard curve of the ATBP prior to conjugation (100, 50, 25, 10, 5, 0 μM). […] The conjugation ratio was the difference between the number of cysteines (8/ATBP) and the calculated number of free cysteines.

[4] = Dynamic light scattering (hydrodynamic radius); assay type: physicochemical; conditions: ATBP or ATBP-SMM conjugate nanoparticles, DLS in PBS at 22° C.
Experimental: as §1, §2, §3

[5] = Pyrene fluorescence assay (critical aggregation concentration); assay type: physicochemical
Experimental: The CAC of ATBP and ATBP-SMM conjugates were determined by fluorescence spectroscopy using pyrene which was utilized as a probe of the local hydrophobicity. The ratio of the first fluorescence emission peak (I370-373) and the third peak (I381-394) were measured at different ATBP concentrations. The inflection point of the curves was used to determine the CAC.
ATBP-GEM was characterized by DLS, SLS, cryo-TEM, AFM, temperature programmed turbidimetry and pyrene fluorescence assay. The detailed procedure was identical to that used to characterize ATBP-SMM conjugates.

[6] = system: subcutaneous HCT116 tumors; assay: Tumor regression, subcutaneous HCT116 xenograft; assay type: in vivo, mice; conditions: 25 mg·kg^−1 GEM equivalent i.v. on day 0, 2 and 4, n=6
Experimental: The PBS control or drugs were administered by tail vein infusion (50 μL/min) of 500 μL. Tumor dimensions and BW were determined 3-4 times a week, and the tumor volume was calculated using the equation: volume [mm^3]=length×width×width×1/2.
BW of mice were monitored and the mice were euthanized upon exceeding 15% loss in BW or if their tumors volume was greater than 1000 mm^3. […] The maximum tolerated dose (MTD) was determined in mice with tumors. Kaplan-Meier analysis was used to compare the cumulative survival and the Sidak test, Tukey Test, Wilcoxon test were carried out using GraphPad Prism 6 software.

[7] = system: HCT116 human colon cancer cells; assay: In vitro cytotoxicity (MTS), HCT116; assay type: cell-based; conditions: HCT-116, 72 h, HCT-116 cells, GEM equivalent
Experimental: (§4) HCT116 and Colo205 human colon cancer cells were procured from Duke Cell Culture Facility and were cultured in complete media containing Minimum Essential Medium Eagle (MEME) supplemented with 10% Fetal Bovine Serum (FBS). Cells were maintained at 37° C. and 5% CO2 and passaged every 2-3 days. […] 20 μL of CellTiter 96 AQueous™ (Promega; Madison, Wis.) 3-(4,5,-[…])-5-(3-carboxymethoxyphenyl)-2-(4-sulfophenyl)-2H-tetrazolium (MTS) solution was added to each well and incubated at 37° C. After 2 h of incubation, the absorbance of the solution was measured at 490 nm with a Victor3 microplate reader (Perkin Elmer; Waltham, Mass.).

[8] = reported value in nude mice; cited from earlier work
[9] = system: Colo205 human colon cancer cells; assay: In vitro cytotoxicity (MTS), Colo205; assay type: cell-based; conditions: COLO 205, 72 h, Colo 205 cells, GEM equivalent
Experimental: as §4

[10] = Table 1, ATBP or ATBP-SMM conjugate, pyrene assay

| Molecule | Tt, Concentration 25 μM [1] [C] | Tt, Concentration 50 μM [1] [C] | Tt, Concentration 100 μM [1] [C] | ρ (Rg/Rh) shape factor [2] | Nagg (chains per nanoparticle) [2] | Rg [2] [nm] | #SMM/ATBP (number of SMM conjugated per ATBP) [3] | Rh [4] | CAC [5, 10] [µM] | median survival time [6] [days] | mean tumor volume ([6]; 12 days after treatment) [mm^3] | IC50 [7] [nM] | terminal half-life [8] [h] | IC50 [9] [nM] | Tt ([1]; FIG. 3(G), thermal turbidimetry at 350 nm) [°C] | CAC ([5]; pyrene fluorescence assay) |
| --- | --- | --- | --- | --- | --- | --- | --- | --- | --- | --- | --- | --- | --- | --- | --- | --- |
| Cl.NCCN1C(=O)C=CC1=O [SMM 2, N-1-(2-Amino-ethyl)-pyrrole-2,5-dione hydrochloride] | 49 | 46 | 41 | 1.14 | 50 | 141.0 | 6.9 | 123.5 nm | 6.6 |  |  |  |  |  |  |  |
| CN1C(=O)C=CC1=O [SMM 5, N-methyl maleimide] | 45 | 44 | 42 | 0.978 | 62 | 45.7 | 6.8 | 46.8 nm | 4.9 |  |  |  |  |  |  |  |
| O=C1C=CC(=O)N1O [SMM 1, N-hydroxymaleimide] | 49 | 46 | 41 | 0.81 | 41 | 77.0 | 7.4 | 87.3 nm | 8.2 |  |  |  |  |  |  |  |
| CCN1C(=O)C=CC1=O [SMM 6, N-ethyl maleimide] | 47 | 46 | 40 | 1.004 | 115 | 62.5 | 7.1 | 62.3 nm | 3.8 |  |  |  |  |  |  |  |
| O=C1C=CC(=O)N1c1ccccc1 [SMM 7, N-Phenyl maleimide] | 48 | 44 | 41 | 0.905 | 112 | 44.4 | 7.0 | 49.1 nm | 1.6 |  |  |  |  |  |  |  |
| Nc1ccn([C@@H]2O[C@H](CO)[C@@H](O)C2(F)F)c(=O)n1 [GEM, Gemcitabine] |  |  |  |  |  |  |  |  |  | 21 | 343 | ~4.1 | 3.4 | ~46.4 |  |  |
| CS(=O)(=O)OCCN1C(=O)C=CC1=O [SMM 3, N-2-Maleimidoethyl mesylate] | 45 | 42 | 38 | 1.06 | 219 | 115.6 | 6.9 | 109.1 nm | 3.2 |  |  |  |  |  |  |  |
| CC(C)(C)N1C(=O)C=CC1=O [SMM 8, N-^tbutyl maleimide] | 44 | 47 | 41 | 0.963 | 93 | 44.5 | 6.4 | 46.2 nm | 1.5 |  |  |  |  |  |  |  |
| B1 | 47 | 44 | 40 | 0.85 | 62 | 42.6 |  | 50 nm and 50.1 nm | 3.6 |  |  |  |  |  | 47 | about 3.6 μM |

Source: patent US11135301B2, “Triblock polypeptide-based nanoparticles for the delivery of hydrophilic drugs” (Duke University, priority 2016, dated 2021)
